Assay results reported in article PMC6564026, “An autoinducer-independent RhlR quorum-sensing receptor enables analysis of RhlR regulation”.

Experiments:
MBP-RhlR* = MBP-RhlR* (Pseudomonas aeruginosa, UniProt P54292 1-241, Y64F;W68F;V133F); experiment: ITC; no ligand; EMSA: 20 mM Tris-HCl pH 8, 50 mM KCl, 1 mM EDTA, 1 mM DTT, 1.5 mg/mL poly-IC, 50 ug/mL BSA, 10% glycerol, room temp 15 min; ITC: 25 C, S200 buffer (200 mM NaCl, 20 mM Tris-HCl pH 8, 1 mM DTT), 20 uM DNA titrated into 1 uM protein; conditions: protein: recombinant; tags: N-terminal MBP (pMALC2x); chain copies: 2; duplex not explicitly stated
MBP-RhlR:mBTL = MBP-RhlR:mBTL (Pseudomonas aeruginosa, UniProt P54292 1-241); experiment: ITC; mBTL; EMSA: 20 mM Tris-HCl pH 8, 50 mM KCl, 1 mM EDTA, 1 mM DTT, 1.5 mg/mL poly-IC, 50 ug/mL BSA, 10% glycerol, room temp 15 min; ITC: 25 C, S200 buffer (200 mM NaCl, 20 mM Tris-HCl pH 8, 1 mM DTT), 20 uM DNA titrated into 1 uM protein; conditions: protein: recombinant; tags: N-terminal MBP (pMALC2x); chain copies: 2; duplex not explicitly stated

B1: rhl-box consensus (dsDNA)
DNA 1: ACCTGCCAGATTTCGCAGGT
DNA 2: ACCTGCGAAATCTGGCAGGT
Kd (MBP-RhlR*): 34 nM
Kd (MBP-RhlR:mBTL): 23 nM
